Reference: patent US12427163B2, “Anti-VTCN1 antibodies and antibody drug conjugates” (Bluefin BioMedicine, Inc., priority 2017, dated 2025)
Where a chain is given by its changes, count along the chain named.

Assays:
[1] = test system: cynomolgus monkey VTCN1 protein; assay: Affinity by OCTET, cynomolgus monkey VTCN1; format: binding; conditions: Table 12
Method: The affinity of antibodies to recombinant VTCN1 was determined on an OCTET™ Red (Pall, ForteBio) instrument. After loading reagents into a 96-well plate, the OCTET™ Red with Protein A-conjugated biosensors was programmed as follows: 30 seconds for baseline #1; 45 seconds to immobilize the antibody; 30 seconds for baseline #2; 300 seconds for association of antibody to recombinant VTCN1-his; and 300 seconds for dissociation of recombinant VTCN1-his from the antibody.

human VTCN1 protein = target: T1, human VTCN1 protein (Homo sapiens, UniProt Q7Z7D3); assay: Affinity to recombinant VTCN1-his by OCTET Red (Protein A biosensors); format: binding; conditions: for Human K(off) / Human k(on): Table 12; for Kdis (human) / Kon (human): Table 5; for K(off) / k(on): Table 9
T1 construct: His
T1 sequence (Q7Z7D3 25-282): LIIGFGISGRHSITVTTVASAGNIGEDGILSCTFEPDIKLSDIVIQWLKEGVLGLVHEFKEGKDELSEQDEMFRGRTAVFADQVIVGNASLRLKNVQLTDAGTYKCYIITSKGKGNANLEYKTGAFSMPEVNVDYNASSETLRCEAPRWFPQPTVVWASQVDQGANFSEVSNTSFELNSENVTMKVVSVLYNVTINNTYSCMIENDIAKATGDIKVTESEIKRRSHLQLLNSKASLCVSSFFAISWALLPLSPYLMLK
Method: (§1) The affinity of antibodies to recombinant VTCN1 was determined on an OCTET™ Red (Pall, ForteBio) instrument. After loading reagents into a 96-well plate, the OCTET™ Red with Protein A-conjugated biosensors was programmed as follows: 30 seconds for baseline #1; 45 seconds to immobilize the antibody; 30 seconds for baseline #2; 300 seconds for association of antibody to recombinant VTCN1-his; and 300 seconds for dissociation of recombinant VTCN1-his from the antibody. Table 5 lists the affinity measured for selected antibodies.

mouse VTCN1 protein = target: T2, mouse VTCN1 protein (Mus musculus, UniProt Q7TSP5); assay: Affinity by OCTET, mouse VTCN1; format: binding; conditions: Table 12
T2 construct: His
T2 sequence (Q7TSP5 25-257): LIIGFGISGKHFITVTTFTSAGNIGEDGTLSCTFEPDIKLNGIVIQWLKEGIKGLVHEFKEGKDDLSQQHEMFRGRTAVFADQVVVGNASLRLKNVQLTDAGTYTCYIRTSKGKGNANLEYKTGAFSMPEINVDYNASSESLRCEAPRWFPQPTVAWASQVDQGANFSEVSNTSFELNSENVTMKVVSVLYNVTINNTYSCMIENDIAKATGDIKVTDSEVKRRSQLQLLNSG
Method: as §1

KLN205 tumors = assay: KLN205 syngeneic mouse lung squamous tumor model in DBA2 mice; format: in vivo
Method: For the tumor study. 6-8 week-old female DBA2 mice were implanted subcutaneously in the right flank with 2.5×10^5 mouse lung squamous carcinoma KLN205 cells in 50% matrigel on day 0. Mice were treated with PBS as a vehicle control, a mouse IgG isotype control (10 mg/kg), or anti-VTCN1 6D9 antibody (10 mg/kg) on days 3, 6, 10, 13, 15, 17, 20, and 22 following tumor implantation by intraperitoneal (i.p.) injection. Tumors were measured using an electronic caliper twice a week and tumor volume was calculated using the formula 0.52*length*width*width. Mouse body weight was also measured and recorded.
6-8 week-old female DBA2 mice were implanted subcutaneously in the right flank with 2.5×10^5 mouse lung squamous carcinoma cell KLN205 cells in 50% matrigel on day 0. Tumors were measured on day 7 and mice are randomized to 7 treatment groups. The average size was 50 mm^3. The treatment groups were: PBS vehicle control, mIgG2a isotype control. 6D9, anti-mouse PD1 antibody RMP1-14, 6D9+RMP1-14, anti-mouse CTLA-4 antibody 9D9, and 6D9+9D9. The mice were treated on days 8, 11, 13, 15, 18, 20, 22, and 25. All antibodies were 10 mg/kg by i.p.
To test the activity of the 6D9 and 6D9-mIgG1 antibodies, 6-8 weeks old female DBA2 mice were implanted subcutaneously in the right flank with 0.2 million KLN205 cells in PBS on day 0. Mice were randomized on day 9 into 3 treatment groups, mIgG1 control. 6D9-mIgG1, 6D9-mIgG2a. Mice were treated on days 9, 11, 15, 18, and 22 by i.p. with 200 μg antibodies (10 mg/kg). […] However.

B1: 7G7_44C6: fully human VTCN1 antibody; VH SEQ ID NO: 256, VL SEQ ID NO: 260 (antibody, V domains shown)
VH: QVQLQESGPGLVKPSETLSLTCTVSGGSISHYYWSWIRQPPGKGLEWIGYIYYSGPTNYNPSLKSRVTISVDTSKNQFSLKLSSVTAADTAVYYCARTYYYGSGSFPDAFDIWGQGTMVTVSS
VL: KIVLTQSPATLSLSPGERATLSCRASQSVSSYLAWYQQTPGQAPRLLIYDASNRATGIPARFSVSGSGTDFTLTISSLEPEDFAVYYCQQRSSWPLTFGGGTKLEIK
[1]
  cynomolgus monkey k(off): 1.50E−01
  cynomolgus monkey k(on): 6.61E+05
Human VTCN1 protein
  Human K(off): 1.62E−01
  Human k(on): 8.42E+05
Mouse VTCN1 protein
  Kd: > 500 nM

B2: 13H9_44D2: fully human VTCN1 antibody; VH SEQ ID NO: 272, VL SEQ ID NO: 276 (antibody, V domains shown)
VH: QVQLQESGPGLVKPSETLSLTCTVSGGSISSYYWSWIRQPPGKGLEWIGYIYYSGSTNNNPSLKSRVTISVDTSKNQFSLKLISVTAADTAVYYCARVYNNYDWGFDYWGQGTLVTVSS
VL: EIVMTQSPATLSVSPGERATLSCRASQSVSSNLAWYQQKPGQAPRLLIYGASTRATGIPARFSGSGSGTEFTLTIRSLQSEDFAVYYCQQYHNWPLTFGGGTKLEIK
[1]
  cynomolgus monkey k(off): 1.67E−01
  cynomolgus monkey k(on): 1.16E+06
Human VTCN1 protein
  Human K(off): 1.71E−01
  Human k(on): 1.33E+06
Mouse VTCN1 protein
  mouse k(off): 5.79E−01
  mouse k(on): 2.16E+06

B3: 10D1: mouse anti-human VTCN1 antibody; VH SEQ ID NO: 57, VL SEQ ID NO: 61 (antibody, V domains shown)
VH: QVQLQESGPELVKPGASVKLSCKASGYIFTDYTIHWLKQSPGQGLEWIGWIYPGSGHTHYNDKFKGKATMTADKSSTTAYMQLSSLTSEDSAVFFCARGGESITTVFPLAYWGQGTLVTVSA
VL: DIVMSQSPSSLAVSVGEKVTMSCKSSQSLLYSSDQKNYLAWYQQKPGQSPKLLIYWASTWESGVPDRFIGSGSGTDFTLTVSSVKAEDLAVYYCHQYYSYPPTFGAGTKLEIK
Human VTCN1 protein
  Kdis (human): 4.04 × 10^−3
  Kon (human): 9.83 × 10^5

B4: hu6D9_57A3: humanized 6D9 antibody; VH SEQ ID NO: 220, VL SEQ ID NO: 224 (antibody, V domains shown)
VH: QVQLVESGGGVVQPGRSLRLSCAVSGFSLTSYGVQWVRQAPGKGLEWLGVIWSSGSTDYNAAFLSRLTISKDNSKNTVYFQMNSLRAEDTAVYYCARDVTTIVEGFAHWGQGTLVTVSS
VL: DIQMTQSPSSLSASVGDRVTITCKASEKVGTYVSWYQQKPGKAPKLLIYGASNRYTGVPSRFSGSGSGTDFTLTISSLQPEDFATYYCGQTYSYPFTFGQGTKLEIK
Human VTCN1 protein
  K(off): 2.27E−03
  k(on): 8.21E+04

B5: hu6D9_57A4: humanized 6D9 antibody; VH SEQ ID NO: 228, VL SEQ ID NO: 224 (antibody, V domains shown)
VH: B4 VH with G9P, G49A, N76S
VL: B4 VL
Human VTCN1 protein
  K(off): 2.26E−03
  k(on): 6.21E+04

B6: hu6D9_66B1: humanized 6D9 antibody; VH SEQ ID NO: 236, VL SEQ ID NO: 224 (antibody, V domains shown)
VH: B4 VH with S28T, L29F, T30S
VL: B4 VL
Human VTCN1 protein
  K(off): 3.25E−03
  k(on): 1.20E+05

B7: hu6D9_57A5: humanized 6D9 antibody; VH SEQ ID NO: 232, VL SEQ ID NO: 224 (antibody, V domains shown)
VH: B4 VH with G49A
VL: B4 VL
Human VTCN1 protein
  K(off): 2.89E−03
  k(on): 8.14E+04

B8: 6D9-mIgG1: 6D9 antibody converted from a mouse IgG2a to a mouse IgG1 (antibody, V domains shown)
VH: QIQLQQSGPGLVQPSQSLSITCTVSGFSLTSYGVQWIRQSPGKGLEWLGVIWSSGSTDYNAAFLSRLSFSKDNSKSQVFFQMNSLQADDSAIYYCARDVTTIVEGFAHWGQGTLVTVSA
VL: NIVMTQSPKSMSMSVGERVTLSCKASEKVGTYVSWYQQKPEQSPKLLIYGASNRYTGVPDRFTGSGSATDFTLTISSVQVEDLADYHCGQTYSYPFTFGSGTKLEIK
KLN205 tumors; Example 15
  mouse survival / time to tumor end point 1500 mm^3: prolonged mouse survival
KLN205 tumors; Example 15, 200 μg (10 mg/kg) i.p. from day 9
  KLN205 primary tumor growth, isotype comparison: inhibit primary tumor growth

B9: 5A12: mouse anti-human VTCN1 antibody; VH SEQ ID NO: 105, VL SEQ ID NO: 109 (antibody, V domains shown)
VH: B8 VH with I2V, I37V, L64I, F69I, S70N, Q81K, A87P, S90T, V99I, H108Y
VL: B8 VL with N1I, K28N, V80A, T91S
Human VTCN1 protein
  Kdis (human): 1.64 × 10^−3
  Kon (human): 3.93 × 10^5

B10: 7F10: mouse anti-human VTCN1 antibody; VH SEQ ID NO: 137, VL SEQ ID NO: 141 (antibody, V domains shown)
VH: QVQLQQSGPGLVQPSQSLSITCTVSGFSLTSYGIHWVRQSPGKGLEWLGVIWSSGSTDYNAAFISRLSISKDNSKSQVFFKMNSLQSDDTAIHYCARDITTIAEGFAYWGQGTLVTVSA
VL: B8 VL with K28N, V80A, T91S
Human VTCN1 protein
  Kdis (human): 5.94 × 10^−3
  Kon (human): 1.15 × 10^6

B11: 3G10: mouse anti-human VTCN1 antibody; VH SEQ ID NO: 17, VL SEQ ID NO: 21 (antibody, V domains shown)
VH: B10 VH with V2I, Q5K, Q6E, I34V, S54G, S56Y, A61S, S87A, H93Y, A103V
VL: B8 VL with N1I, V19I, S22N, K28N, R61H, V80A
Human VTCN1 protein
  Kdis (human): 1.26 × 10^−2
  Kon (human): 1.07 × 10^6

B12: 6E2: mouse anti-human VTCN1 antibody; VH SEQ ID NO: 33, VL SEQ ID NO: 37 (antibody, V domains shown)
VH: B8 VH with Q6E, I37V, S54G, L64I, F69I, Q81K, S90T, V99I, T100S, A119S
VL: B8 VL with V80A, T91S, S93R
Human VTCN1 protein
  Kdis (human): 7.46 × 10^−3
  Kon (human): 9.41 × 10^5
